From PMC4336609

Molecular target: 14-3-3β (UniProt P31946)
Assay: GST-14-3-3β pull-down from cell lysate
Conditions: reference: wild type; sites T181

XLF (from UniProt Q9H9Q4) T181A
binding against the reference: lost
